In data set [1] the target is T1, AusE-(6P-A298) (Aspergillus nidulans, UniProt Q5AR34).
T1 construct: crystal construct, N-terminal truncated 6P-A298 in pET28a, E. coli, EDTA-treated, Mn(II) reconstituted; homodimer
T1 sequence (Q5AR34 6-298): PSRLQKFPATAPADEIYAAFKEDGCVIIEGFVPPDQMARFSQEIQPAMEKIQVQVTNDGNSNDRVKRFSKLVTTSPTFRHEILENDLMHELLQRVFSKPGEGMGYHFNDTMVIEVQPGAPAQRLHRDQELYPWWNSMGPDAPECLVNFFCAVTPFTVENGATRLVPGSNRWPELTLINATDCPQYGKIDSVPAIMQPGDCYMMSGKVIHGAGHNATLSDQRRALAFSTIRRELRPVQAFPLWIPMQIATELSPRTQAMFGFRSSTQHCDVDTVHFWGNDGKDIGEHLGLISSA
The data set can be described thus: X-ray crystal structure. Type of data set: binding. To be noted: Mn(II), anaerobic; co-substrate.

In data set [2] the target is T2, PrhA-(6P-A298), N-terminal truncated and C-terminal chimeric PrhA (Penicillium brasilianum, UniProt A0A1E1FFL0, E295I/A296S/P297S/S298A).
T2 construct: crystal construct PrhA-(6P-A298): residues from Pro6, C-terminal Glu295-Val301 replaced by AusE Ile295-Ser296-Ser297-Ala298, in pET28a, EDTA-treated; homodimer; Asp276′ of the other chain contacts substrate
T2 sequence (A0A1E1FFL0 6-298 E295I/A296S/P297S/S298A): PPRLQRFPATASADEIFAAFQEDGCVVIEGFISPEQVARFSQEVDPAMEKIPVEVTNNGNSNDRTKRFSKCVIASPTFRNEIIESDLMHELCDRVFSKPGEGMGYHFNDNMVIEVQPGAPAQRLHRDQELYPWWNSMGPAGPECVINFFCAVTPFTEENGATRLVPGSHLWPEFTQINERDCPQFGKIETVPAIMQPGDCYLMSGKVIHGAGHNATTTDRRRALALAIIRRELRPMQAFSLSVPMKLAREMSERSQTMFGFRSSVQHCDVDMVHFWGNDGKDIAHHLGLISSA
The data set can be described thus: X-ray crystal structure. Type of data set: binding. To be noted: Fe(II); crystal soaked with αKG; co-substrate, bidentate chelation.

Data set [3] deals with the molecule itself. The data set can be described thus: dynamic light scattering; purified enzymes; monomodal distribution, polydispersity 18.2 and 21.1%; predicted masses compared with the calculated 35.1 kDa.
Data set [4] concerns the molecule itself. The data set can be described thus: crystal structure; anaerobic vapor diffusion at 20 °C; AusE with MnCl2 (and αKG); PrhA and mutants crystallised as apo form and soaked with FeSO4, αKG and substrate; homodimer in the crystal.

Turning to `O=C(O)CCC(=O)C(=O)O` [α-ketoglutarate], the X-ray crystal structure result in data set [1] is “X-ray crystal structures of AusE complexed with Mn(II) and αKG (AusE-Mn/αKG)”; in data set [2], “in complex with Fe(II) and αKG (PrhA-Fe/αKG)”.

B1: wild-type AusE (AusE-(M1-A298)) (enzyme, Aspergillus nidulans, UniProt Q5AR34 1-298, looked up)
chain: MGSATPSRLQKFPATAPADEIYAAFKEDGCVIIEGFVPPDQMARFSQEIQPAMEKIQVQVTNDGNSNDRVKRFSKLVTTSPTFRHEILENDLMHELLQRVFSKPGEGMGYHFNDTMVIEVQPGAPAQRLHRDQELYPWWNSMGPDAPECLVNFFCAVTPFTVENGATRLVPGSNRWPELTLINATDCPQYGKIDSVPAIMQPGDCYMMSGKVIHGAGHNATLSDQRRALAFSTIRRELRPVQAFPLWIPMQIATELSPRTQAMFGFRSSTQHCDVDTVHFWGNDGKDIGEHLGLISSA
notes: AusE, Fe(II)/αKG-dependent oxygenase, Aspergillus nidulans; It may have been the 6-298 crystallisation construct; also called recombinant AusE; source: E. coli Rosetta 2(DE3)pLysS, purified (HisTrap HP, HiTrap Q HP, Superdex 200)
Regarding B1, the stoichiometry N (as a rule, a count of units in the complex or per binding partner) in data set [3] was 2.

B2: N-terminal truncated and C-terminal chimeric PrhA-(6P-A298) (enzyme)
chain: PPRLQRFPATASADEIFAAFQEDGCVVIEGFISPEQVARFSQEVDPAMEKIPVEVTNNGNSNDRTKRFSKCVIASPTFRNEIIESDLMHELCDRVFSKPGEGMGYHFNDNMVIEVQPGAPAQRLHRDQELYPWWNSMGPAGPECVINFFCAVTPFTEENGATRLVPGSHLWPEFTQINERDCPQFGKIETVPAIMQPGDCYLMSGKVIHGAGHNATTTDRRRALALAIIRRELRPMQAFSLSVPMKLAREMSERSQTMFGFRSSVQHCDVDMVHFWGNDGKDIAHHLGLISSA
notes: PrhA, Fe(II)/αKG-dependent oxygenase of paraherquonin biosynthesis, Penicillium brasilianum; from P6 up to the residue before Glu295 (Glu295-Val301 were replaced); AusE, Aspergillus nidulans, residues Ile295-Ser296-Ser297-Ala298, put in place of PrhA Glu295-Val301; Crystallised as apo form; Fe(II), αKG and preaustinoid A1 (5) were soaked in; also called PrhA-Fe; PrhA-Fe/αKG; source: E. coli …
As to B2, in data set [4], the “stoichiometry N” value is 2.

B3: N-terminal truncated AusE-(6P-A298) (enzyme, Aspergillus nidulans, UniProt Q5AR34 6-298, looked up)
chain: PSRLQKFPATAPADEIYAAFKEDGCVIIEGFVPPDQMARFSQEIQPAMEKIQVQVTNDGNSNDRVKRFSKLVTTSPTFRHEILENDLMHELLQRVFSKPGEGMGYHFNDTMVIEVQPGAPAQRLHRDQELYPWWNSMGPDAPECLVNFFCAVTPFTVENGATRLVPGSNRWPELTLINATDCPQYGKIDSVPAIMQPGDCYMMSGKVIHGAGHNATLSDQRRALAFSTIRRELRPVQAFPLWIPMQIATELSPRTQAMFGFRSSTQHCDVDTVHFWGNDGKDIGEHLGLISSA
notes: AusE, Fe(II)/αKG-dependent oxygenase of austinol biosynthesis, Aspergillus nidulans; residues P6-A298, cloned NdeI/BamHI into pET28a; Crystallised with Mn(II), and with Mn(II) and αKG; also called AusE-Mn; AusE-Mn/αKG; source: E. coli Rosetta 2(DE3)pLysS, purified (HisTrap HP, HiTrap Q HP, EDTA treatment, Superdex 200)
Take B3: in data set [4], the “stoichiometry N” value is 2.

B4: wild-type PrhA (PrhA-(M1-V301)) (enzyme, Penicillium brasilianum, UniProt A0A1E1FFL0 1-301, looked up)
chain: MAPMIPPRLQRFPATASADEIFAAFQEDGCVVIEGFISPEQVARFSQEVDPAMEKIPVEVTNNGNSNDRTKRFSKCVIASPTFRNEIIESDLMHELCDRVFSKPGEGMGYHFNDNMVIEVQPGAPAQRLHRDQELYPWWNSMGPAGPECVINFFCAVTPFTEENGATRLVPGSHLWPEFTQINERDCPQFGKIETVPAIMQPGDCYLMSGKVIHGAGHNATTTDRRRALALAIIRRELRPMQAFSLSVPMKLAREMSERSQTMFGFRSSVQHCDVDMVHFWGNDGKDIAHHLGLEAPSVHV
notes: PrhA, Fe(II)/αKG-dependent oxygenase, Penicillium brasilianum; It may have been the chimeric 6-298 crystallisation construct; also called recombinant PrhA; source: E. coli Rosetta 2(DE3)pLysS, purified (HisTrap HP, HiTrap Q HP, Superdex 200)
Regarding B4, the “stoichiometry N” value in data set [3] was 2.
